Reference: the DeepSol protein solubility set

Test: soluble on expression in E. coli; label from the status in PepcDB or PDB records

| Sequence | soluble on expression in E. coli |
| --- | --- |
| MSLRITGPYQSFARYETALLGFLSHASGMATAALAARRAAPDSHLLSFGARHVHPSIAAVVERAALIGGFDGFSHVAAGDVLDREPGGTMPHALVICFGRGNQEAAWRAFTDGVGDDVPRIALCDTYSDEKDEVLRAVDELGDDLDAVRLDTTSSRRGDFRHIAREVQWALDAGGNSDVSVFVSGGLTPTDLRGLRDVVDGFGVGGFVSNATPVDFGLDIVEVAGEPAAKRGKLSGTKAVYRTPDGGHHVALASQPAPADATALLEPLLVDGTVSMAFDIDDAAARARQDARAVSFRQEGHHHHHH | soluble |
| KRAGTVCSNCQTSTTTLWRRSPMGDPVCNACGLYYKLHQVNRPLTMRKDGIQTRNRKVSSKGKKRR | soluble |
| MEIATRLKMNVKEQTEVILTNFTKMLFRRKLIKDQQSLLNKLKNIDTKDIYHFKENDMNFLLIITFQKLNGIKKGSEIEEQLIKSKGYNFIIASQSSNKTYQQVKNFKGELFLTLEFLSDIPSLPFVPEHILLSEKEKEEILSVYKEKNIAKIFVTDMMARYLGAKKGDLIKIIRKTLNTGESIYYRRVF | not soluble |
| MSLEEYPQMIVFEDVPYGFWAYDAIMDLAYHKIILGYGNGKYGVGDLTTREQVAGIIYRTLEMKEEGSVANPYKDISDSTTTFKKEILALTKRGVFTGDGQGNFRPKAPVSRAEMAVILKRAFTFETKQKHTFKDIPKGHWAEDAISALQSNNVVRGTGNGMYELNRPVPREQYAQFINNAIINYHLKEDWREGHHHHHH | not soluble |
| MSLQEGQNRKTSSLSILAIAGVEPYQEKPGEEYMNEAQLSHFKRILEAWRNQLRDEVDRTVTHMQDEAANFPDPVDRAAQEEEFSLELRNRDRERKLIKKIEKTLKKVEDEDFGYCESCGVEIGIRRLEARPTADLCIDCKTLAEIREKQMAGEGGSHHHHHH | soluble |
| MGSDKIHHHHHHMIALKELKQYADLHVKTHSFQVINPRQVLQSIERAASEEPTAGGWDWQWVDAANKCLQANAIEDAIQCYNFARFPFPKTSLQQEAADRLTKVFEQAYCREDVQKHRVYYDNQKVTVYAANLHPDLPCLLVLGGIVSIKEQWSVFLQVGKRLGFSVLITECPGVGENQVRYHADSYRMIGQILDTFAGQAKVGDTYIVGMSFGGHLAMKQALHDERIKGITTVGAPLHYFFQDYSQLNVPFITQATLAHVMEEELDHVGRALSRFAFMPKELNKLKIPITYIFSSKDEIIPKSEKSFLLDNIANLTFYEFDDVHGSPNHLPLIQKIIPLSILKHSNSKRYFVRIMLAFLLTYNKWKGRDGKR | not soluble |
| MSGRVGDLSPRQKEALAKFRENVQDVLPALPNPDDYFLLRWLRARSFDLQKSEAMLRKHVEFRKQKDIDNIISWQPPEVIQQYLSGGMCGYDLDGCPVWYDIIGPLDAKGLLFSASKQDLLRTKMRECELLLQECAHQTTKLGRKVETITIIYDCEGLGLKHLWKPAVEAYGEFLCMFEENYPETLKRLFVVKAPKLFPVAYNLIKPFLSEDTRKKIMVLGANWKEVLLKHISPDQVPVEYGGTMTDPDGNPKCKSKINYGGDIPRKYYVRDQVKQQYEHSVQISRGSSHQVEYEILFPGCVLRWQFMSDGADVGFGIFLKTKMGERQRAGEMTEVLPNQRYNSHLVPEDGTLTCSDPGIYVLRFDNTYSFIHAKKVNFTVEVLLPDKASEEKMKQLGAGTPK | soluble |
| GAMGSSLDNPTPFPNLGPSENPLKRLLVPGEEWEFEVTAFYRGRQVFQQTISCPEGLRLVGSEVGDRTLPGWPVTLPDPGMSLTDRGVMSYVRHVLSCLGGGLALWRAGQWLWAQRLGHCHTYWAVSEELLPNSGHGPDGEVPKDKEGGVFDLGPFIVDLITFTEGSGRSPRYALWFCVGESWPQDQPWTKRLVMVKVVPTCLRALVEMARVGGASSLENTVDLHISNSHPLSLTSDQYKAYLQDLVEGMDFQGPGES | soluble |
| MESSTDGQVVPQEVLNLPLEKYHEEADDYLDHLLDSLEELSEAHPDCIPDVELSHGVMTLEIPAFGTYVINKQPPNKQIWLASPLSGPNRFDLLNGEWVSLRNGTKLTDILTEEVEKAISKSQ | soluble |
| MQIVQIEQAPKDYISDIKIIPSKSLLLITSWDGSLTVYKFDIQAKNVDLLQSLRYKHPLLCCNFIDNTDLQIYVGTVQGEILKVDLIGSPSFQALTNNEANLGICRICKYGDDKLIAASWDGLIEVIDPRNYGDGVIAVKNLNSNNTKVKNKIFTMDTNSSRLIVGMNNSQVQWFRLPLCEDDNGTIEESGLKYQIRDVALLPKEQEGYACSSIDGRVAVEFFDDQGDDYNSSKRFAFRCHRLNLKDTNLAYPVNSIEFSPRHKFLYTAGSDGIISCWNLQTRKKIKNFAKFNEDSVVKIACSDNILCLATSDDTFKTNAAIDQTIELNASSIYIIFDYENLEHHHHHH | soluble |
| MSLEALMNVQFFDHAHHKLKIRGLQSPVDVLTFEGREQLSTPFRYDIQFTSSDKAIAPESVLMQDGAFSLTAPPVQGMPVQTALRTLHGVITGFKHLSSSQDEARYEVRLEPRMALLTRSRQNAIYQNQTVPQIVEKILRERHQMRGQDFVFNLKSEYPAREQVMQYGEDDLTFVSRLLSEVGIWFRFATDARLKIEVIEFYDDQSGYERGLTLPLRHPSGLFDGETEAVWGLNTAYSVVEKSVSTRDYNYREATAEMTTGQHDATGGDNTTYGEAYHYADNFLQQGDKEAAESGAFYARIRHERYLNEQAILKGQSTSSLLMPGLEIKVQGDDAPAVFRKGVLITGVTTSAARDRSYELTFTAIPYSERYGYRPALIPRPVMAGTLPARVTSTVKNDIYAHIDKDGRYRVNLDFDRDTWKPGYESLWVRQSRPYAGDTYGLHLPLLAGTEVSIAFEEGNPDRPYIAGVKHDSAHTDHVTIQNYKRNVLRTPANNKIRLDDERGKEHIKVSTEYGGKSQLNLGHLVDAGKEQRGEGFELRTDLWGAVRAKKGIFISADAQDKAQGQVLEMQPALARLSAALVTMESLAASAQQAQALAADVSRQQTLLQQKIEQLQQEVLLGSAPKGVALVSGEDMQLSASDNLTLTAGKQLDIGVQKDFTLAAGKQLSLYSRAGAKLFSSHNDIDIQAQGGNLTTWSTQDTYISSGKKLVVTAQDELTLICGGGYIKIKSGNVEIGGPGKLLVKNAGIKKAGSGSMQGVMKSFEPESFDENFIISNPASGKPIANQKYEIHMPDGSVIAGITDAMGYSSLVASKASDDLKIILKKEGHHHHHH | soluble |
| MGSDKIHHHHHHMEEITKIESIDQYDQLFGLETLHPLVNVIDFSKATKTVDYYRMNIGFYSLFLKDAKCGDLRYGRKYYDYQEGTVVCMAPGQVIGIDNRKQTPIRTKSIGLLFHPDLIRGTSLGQNIKHYSFFSYEVNEALHLSEQEREIVTDCIHKIQIELEHAIDKHSKQLIVRNIELLLDYCMRFYERQFITRNQANKDIIVKFEQLLDEYFQNQTALTEGLPSVKYFADKVCLSSNYFGDLIKKETGKTAQEYIQHRIIELAKERILEGSQTVSQIAYELGFQYPQHFSRLFKKNVGCTPNEYKQQN | not soluble |
| MAFEGLADRLQQTMQKIRGKGKVSEADVKEMMREVRLALLEADVNFKVVKDFVKRVSERAVGQDVMKSLTPGQQVIKVVQEELTELMGGEQSKIAIANKPPTVIMMVGLQGAGKTTTTGKLANLLRKKHNRKPMLVAADIYRPAAIKQLETLGKQLDMPVFSLGDQVSPVEIAKQAIAKAKEDHHDYVLIDTAGHLHIDEELMDELAKVKEVAKPDEIFLVVDAMTGQDAVNVAQSFHEQLGLTGVVLTKLDGDTRGGAALSIKAVTNTPIKFAGMGEKLDALEAFHPERMASRILGMGDVLTLIEKAQATVDEEKAKELEQKMRTLSFTLDDFLEQLGQVRQLGPLDELLGMLPGANKIKGLKNAQVDEKQIGHIEAIIRSMTKLEREQPEIINASRKKRIAKGSGTTVQEINRLIKQFDDMKKMMKTMTGMQKGKKKGLGGLKFPFM | not soluble |
| MIAVVIPAHNEARRLGRCLRAVLVAARQAQQAGLHVEVLVVLDRCSDGSAAVARRFGVHTLEVDAGNVGMARRVGAAHMVERGATWLACTDADSRVPAHWLLSQLACSAEVVCGTVHVEYWQPWQTAALRKLYQSRYQACEGHRHVHGANLGVCADAYERVGGFQPLAAHEDVQLVSDLQASGAQIVWTARHSVATSSRRDSRAREGFGDYLAGLQAQSLEHHHHHH | not soluble |
| MELWLVRHGETLWNREGRLLGWTDLPLTAEGEAQARRLKGALPSLPAFSSDLLRARRTAELAGFSPRLYPELREIHFGALEGALWETMDPRYKEALLRFQGFHPPGGESLSAFQERVFRFLEGLKAPAVLFTHGGVVRAVLRALGEDGLVPPGSAVAVDWPRRVLVRLALDGEEATG | soluble |
| MNKKIFVIGSGLSGLVASTELLKKGYHVTMLDQEPRQAIGGQAYWSFGGLFLVNSKIQQRLGVKDSYELALNDWLGSAQFDRPDDEDYWAKQWAEAYVRFATFEKENYLKEMGVRLTPILGWAERGGASASGHGNSVPRFHITWGTGPGLVEPFSRFVLEKEQEGQFKFLPRHQVTDIGIEHNQVTHISGIILEPSDVERGEKSSRTVIDTFHYEVDELLITSGGIGANMPLIRKYWPKRLGNPPKTMIQGVPDSTDGHLIQVTEDAGANIVNKDRMWHYTEGIQNHSPIWSNHGIRIIPGPSSMWFDATGKRMAAPDYPGFDTLHTLETIMKTGYDYSWFILTEDIIKKEFVLSGSEQNPDLTDKDIKLLLQERLGSKATSPVEAFMDKGPDFILADDLGMLVRKMNDLAGNDLLNYETIKHEIKARDLQIDNPFTKDPQVAFINNARQFLGNKLVRTAKPHKILSGRNGRLIAVKLNIISRKTLGGIQTNLDGQALNPSMQPIQGLYAAGEASGFGGGGVHGYRALEGTFLGGCIFSGIRAAEGIHHHIQLEHHHHHH | soluble |
| MGHHHHHHSHMRSVSYVQRVALEFSGSLFPHAICLGDVDNDTLNELVVGDTSGKVSVYKNDDSRPWLTCSCQGMLTCVGVGDVCNKGKNLLVAVSAEGWFHLFDLTPAKVLDASGHHETLIGEEQRPVFKQHIPANTKVMLISDIDGDGCRELVVGYTDRVVRAFRWEELGEGPEHLTGQLVSLKKWMLEGHHDKPGITQGTGIAIVNK | not soluble |
| TPTEGLTIGDKAPTFTICGEKQLIDLKDLRGKYVLLSFWASYDALSRMQNATLNHAVAQADNVEMVSVSFDEYKSIFNETIKKDQISTSNCFVELAGVSSDLYQTYRLKRGFKNFLLDENGVIVAKDVTVSELSS | not soluble |
| MGSDKIHHHHHHMTLTKEQLLNRGIEVIDKAENEGITLRVIGGAAIALIAKKGSELYPRVYKDIDYFGLSSQSTKISRFLEGIGLIPNKRFNALHGHIRLMFFDPIINSTVDVFLDEFVMCHKLVLKDRLRIMKYTIPTSDLFLTKMQIIQLTENDKKDIAALLYDVELGERDDEKTMNYNYIAKILSEDWGFYKTYTINHDRVLEFMKNDKNREIIEPKLVKLREIIEKHPKSIKWKMRAKIGEKVKWYEEPEEVNTNFTQQ | not soluble |
| MSLDLLISNCTVFGREGSDAIGINEGRIAFIGIDRDLRAKKRIDLSGKIVFPGFIDSHAHLLSTGLEDIRLNLYHTKSKEEVVERIAEYSKGKEKVIAYRWDESMWKPQSSYLTSSDINGIPVPVVAFRRDGHMAVANQKAMDVIGTTRKEGIFKEDDIELLEPLVKPNEAEIRDALNTAANRAISLGIVAVRDMVDISTYNEYKNIKTPLKIYKVLYSDSIFDKFGTSSQNDWGIKAFLDGSLGSRTAAHKGWDASNLKMDESKFENFAKQIWMHNLPLAVHAIGEVAVETAAKVFYRNAGRNRNSIEHFELVDDDVLDYITKTTIISSQPNFLEWAGKGGMYEDRVGGEWLYKNNPFRWMIDRGIHLAFGSDSMPIGPMYGIYYAVNSEYQRQKITLEEAVRCYSEGGSYLLGTEGYMGMLRVGYSADMAVFDEKLLKDLRGIKAAKPEITIINGKIYTNEGHHHHHH | not soluble |
